Blank lines part the entries; values can stand above or below the binder they belong to. Bridges are numbered along the chain shown (N, C = ends). [ ]: non-standard residue; d: D form. Pro(4NHCOPhe) = not defined here; Nle = CCCC[C@H](N)C(=O)O
Key:
[1] = target: T1, Trypsin, Iodination grade, from human pancreas (human, UniProt P07477 24-247); experiment: enzyme inhibition, pNA substrate
T1 construct: purified natural enzyme, bought

[2] = target: T2, CathepsinG, from human neutrophils (human, UniProt P08311 21-244); experiment: cell-based or functional assay
T2 sequence (looked up): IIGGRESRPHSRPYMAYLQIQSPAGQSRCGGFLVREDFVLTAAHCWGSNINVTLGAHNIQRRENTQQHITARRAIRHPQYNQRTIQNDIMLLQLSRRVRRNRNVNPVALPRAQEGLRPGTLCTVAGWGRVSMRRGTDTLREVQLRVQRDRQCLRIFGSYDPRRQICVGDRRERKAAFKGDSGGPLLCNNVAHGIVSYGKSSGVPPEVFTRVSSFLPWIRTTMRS

[3] = target: T3, Elastase from human neutrophils (human, UniProt P08246 30-247, limits assumed); experiment: cell-based or functional assay
T3 sequence (looked up): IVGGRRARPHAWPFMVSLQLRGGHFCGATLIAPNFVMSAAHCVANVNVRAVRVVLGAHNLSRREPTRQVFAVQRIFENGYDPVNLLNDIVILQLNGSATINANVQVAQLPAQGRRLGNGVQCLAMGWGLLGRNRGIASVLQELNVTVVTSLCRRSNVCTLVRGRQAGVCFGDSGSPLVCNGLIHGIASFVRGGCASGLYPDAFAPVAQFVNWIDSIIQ

[4] = target: Trypsin, Iodination grade, from human pancreas (human, UniProt P07477 24-247); experiment: cell-based or functional assay
[5] = target: Chymotrypsin, from human pancreas (human, UniProt P17538 19-263); experiment: cell-based or functional assay
Chymase, from human skin [6] = target: T4, Chymase, from human skin (human, UniProt P23946 22-247); experiment: cell-based or functional assay
T4 sequence (looked up): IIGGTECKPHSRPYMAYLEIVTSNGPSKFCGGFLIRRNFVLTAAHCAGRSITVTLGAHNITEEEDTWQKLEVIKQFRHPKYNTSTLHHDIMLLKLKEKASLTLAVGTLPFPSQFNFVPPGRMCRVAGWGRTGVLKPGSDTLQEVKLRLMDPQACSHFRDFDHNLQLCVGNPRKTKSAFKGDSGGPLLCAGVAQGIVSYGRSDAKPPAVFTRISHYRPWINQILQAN

[7] = target: Thrombin, from Human Plasma, high activity (human, UniProt P00734 328-622); experiment: cell-based or functional assay
[8] = target: Coagulation Factor Xa, from human plasma (human, UniProt P00742 41-488, limits assumed); experiment: cell-based or functional assay
[9] = target: Urokinase from human urine (human, UniProt P00749 21-431, limits assumed); experiment: cell-based or functional assay
[10] = target: Tryptase, from human lung (human, UniProt Q15661 31-275, limits assumed); experiment: cell-based or functional assay
Target sequence in this assay (Q15661 31-275 limits assumed): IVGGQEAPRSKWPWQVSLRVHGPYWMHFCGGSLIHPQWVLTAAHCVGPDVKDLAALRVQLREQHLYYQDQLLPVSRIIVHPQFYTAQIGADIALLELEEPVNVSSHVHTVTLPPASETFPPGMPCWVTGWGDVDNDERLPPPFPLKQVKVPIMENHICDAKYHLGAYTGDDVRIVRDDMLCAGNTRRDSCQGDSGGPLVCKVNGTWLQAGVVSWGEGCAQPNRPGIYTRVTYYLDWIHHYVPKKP

Chymase, from human skin [11] = target: T5, Chymase, from human skin (human, UniProt P23946 22-247); experiment: enzyme inhibition, pNA substrate
T5 construct: purified natural enzyme, bought
T5 sequence (looked up): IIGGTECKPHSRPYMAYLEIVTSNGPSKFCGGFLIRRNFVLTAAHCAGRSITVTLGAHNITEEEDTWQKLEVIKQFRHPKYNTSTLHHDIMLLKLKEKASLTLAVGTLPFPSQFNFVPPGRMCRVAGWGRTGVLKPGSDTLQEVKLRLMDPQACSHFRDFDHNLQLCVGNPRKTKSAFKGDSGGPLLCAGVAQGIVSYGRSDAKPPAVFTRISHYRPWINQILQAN

[12] = target: T6, Coagulation Factor Xa, from uman plasma (human, UniProt P00742 41-179; P00742 235-488, limits assumed); experiment: enzyme inhibition, pNA substrate
T6 construct: purified natural enzyme, bought; also called FXa

[13] = target: T7, Tryptase, from human lung (human, UniProt Q15661 31-275, limits assumed); experiment: enzyme inhibition, pNA substrate
T7 construct: purified natural enzyme, bought
T7 sequence (Q15661 31-275 limits assumed): as the sequence (Q15661 31-275 limits assumed) above

[14] = target: Thrombin, from Human Plasma, high activity (human, UniProt P00734 328-622); experiment: enzyme inhibition, pNA substrate

Chain of Chymotrypsin, from human pancreas (P17538 19-263): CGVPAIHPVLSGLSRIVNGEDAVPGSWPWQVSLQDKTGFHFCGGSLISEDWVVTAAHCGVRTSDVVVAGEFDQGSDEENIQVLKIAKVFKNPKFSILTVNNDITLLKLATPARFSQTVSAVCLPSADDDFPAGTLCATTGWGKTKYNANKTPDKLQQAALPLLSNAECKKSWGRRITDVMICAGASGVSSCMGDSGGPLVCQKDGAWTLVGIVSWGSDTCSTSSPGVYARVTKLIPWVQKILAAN
Chain of Coagulation Factor Xa, from human plasma (P00742 41-488 limits assumed): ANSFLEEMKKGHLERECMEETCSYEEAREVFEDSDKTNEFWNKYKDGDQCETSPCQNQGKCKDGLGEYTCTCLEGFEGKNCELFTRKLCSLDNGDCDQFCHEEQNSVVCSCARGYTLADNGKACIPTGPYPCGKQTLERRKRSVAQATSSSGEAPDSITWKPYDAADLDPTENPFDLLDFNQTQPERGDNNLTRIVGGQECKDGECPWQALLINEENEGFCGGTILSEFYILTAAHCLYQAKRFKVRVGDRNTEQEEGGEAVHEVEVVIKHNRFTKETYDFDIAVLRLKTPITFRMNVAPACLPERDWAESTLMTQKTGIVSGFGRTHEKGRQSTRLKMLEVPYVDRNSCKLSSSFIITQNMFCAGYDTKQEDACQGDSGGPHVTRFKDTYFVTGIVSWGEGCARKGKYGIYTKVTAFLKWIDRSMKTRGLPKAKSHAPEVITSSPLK
T6 sequence (P00742 41-179 limits assumed, chain 1 of 2): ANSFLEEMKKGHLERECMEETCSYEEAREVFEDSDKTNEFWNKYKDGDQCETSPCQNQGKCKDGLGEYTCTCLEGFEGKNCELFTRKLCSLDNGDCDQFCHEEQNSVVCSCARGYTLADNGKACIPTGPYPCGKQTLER
T6 sequence (P00742 235-488 limits assumed, chain 2 of 2): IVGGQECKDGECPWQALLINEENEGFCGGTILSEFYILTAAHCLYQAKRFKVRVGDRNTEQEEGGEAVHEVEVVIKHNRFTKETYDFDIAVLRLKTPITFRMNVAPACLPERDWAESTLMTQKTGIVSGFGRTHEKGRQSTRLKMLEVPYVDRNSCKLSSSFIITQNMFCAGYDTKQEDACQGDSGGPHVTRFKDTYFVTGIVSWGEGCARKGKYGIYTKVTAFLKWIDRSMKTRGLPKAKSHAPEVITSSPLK

IC50 [2]: 90 nmol
IC50 [3]: 37000 nmol
% inhibition at 100 µM [4]: 97%
% inhibition at 100 µM [5]: 28%
% inhibition at 100 µM (Chymase, from human skin [6]): 12%
% inhibition at 100 µM [7]: 11%
% inhibition at 100 µM [8]: 5%
% inhibition at 100 µM [9]: 12%
% inhibition at 100 µM [10]: 59.3%
B1: Example 12 (peptide)
peptide: XCTKSDPPICR
HELM: PEPTIDE1{[O=C([C@@H](N[*:1])C1CCCCC1)[*:2]].C.T.K.S.D.P.P.I.C.R.[dP].P}$PEPTIDE1,PEPTIDE1,2:R3-10:R3|PEPTIDE1,PEPTIDE1,1:R1-13:R2$$$V2.0
SMILES: CC[C@H](C)[C@@H]1NC(=O)[C@@H]2CCCN2C(=O)[C@@H]2CCCN2C(=O)[C@H](CC(=O)O)NC(=O)[C@H](CO)NC(=O)[C@H](CCCCN)NC(=O)[C@H]([C@@H](C)O)NC(=O)[C@@H]2CSSC[C@H](NC1=O)C(=O)N[C@@H](CCCNC(=N)N)C(=O)N1CCC[C@@H]1C(=O)N1CCC[C@H]1C(=O)N[C@@H](C1CCCCC1)C(=O)N2

% inhibition at 100 µM (Chymase, from human skin [11]): 0%
% inhibition at 100 µM [12]: 0%
% inhibition at 100 µM [13]: 0%
B2: Example 96 (peptide)
peptide: XCTASIPPQCX
HELM: PEPTIDE1{[Nle].C.T.A.S.I.P.P.Q.C.[O=C([C@H](Cc1ccccc1Cl)N[*:1])[*:2]].[dP].P}$PEPTIDE1,PEPTIDE1,2:R3-10:R3|PEPTIDE1,PEPTIDE1,1:R1-13:R2$$$V2.0
SMILES: CCCC[C@@H]1NC(=O)[C@@H]2CCCN2C(=O)[C@H]2CCCN2C(=O)[C@H](Cc2ccccc2Cl)NC(=O)[C@@H]2CSSC[C@H](NC1=O)C(=O)N[C@@H]([C@@H](C)O)C(=O)N[C@@H](C)C(=O)N[C@@H](CO)C(=O)N[C@@H]([C@@H](C)CC)C(=O)N1CCC[C@H]1C(=O)N1CCC[C@H]1C(=O)N[C@@H](CCC(N)=O)C(=O)N2
notes: also called Ex. 96

IC50 [2]: 86 nmol
% inhibition at 100 µM [3]: 69.1%
% inhibition at 100 µM [4]: 92.6%
% inhibition at 100 µM [5]: 7.8%
% inhibition at 100 µM (Chymase, from human skin [6]): 0%
% inhibition at 100 µM [7]: 1.1%
% inhibition at 100 µM [8]: 5.7%
% inhibition at 100 µM [9]: 5.7%
% inhibition at 100 µM [10]: 0%
B3: Example 75 (peptide)
peptide: RCTKSDPPICF
HELM: PEPTIDE1{R.C.T.K.S.D.P.P.I.C.F.[dP].P}$PEPTIDE1,PEPTIDE1,2:R3-10:R3|PEPTIDE1,PEPTIDE1,1:R1-13:R2$$$V2.0
SMILES: CC[C@H](C)[C@@H]1NC(=O)[C@@H]2CCCN2C(=O)[C@@H]2CCCN2C(=O)[C@H](CC(=O)O)NC(=O)[C@H](CO)NC(=O)[C@H](CCCCN)NC(=O)[C@H]([C@@H](C)O)NC(=O)[C@@H]2CSSC[C@H](NC1=O)C(=O)N[C@@H](Cc1ccccc1)C(=O)N1CCC[C@@H]1C(=O)N1CCC[C@H]1C(=O)N[C@@H](CCCNC(=N)N)C(=O)N2

IC50 [2]: 91 nmol
% inhibition at 100 µM [3]: 1.5%
% inhibition at 100 µM [4]: 41%
% inhibition at 100 µM [5]: 12%
% inhibition at 100 µM (Chymase, from human skin [6]): 13.4%
% inhibition at 100 µM [7]: 0%
% inhibition at 100 µM [8]: 11.7%
% inhibition at 100 µM [9]: 1.1%
% inhibition at 100 µM [10]: 1.5%
B7: Example 7 (peptide)
peptide: RETKSDPPIRF
HELM: PEPTIDE1{R.E.T.K.S.D.P.P.I.R.F.[dP].P}$PEPTIDE1,PEPTIDE1,1:R1-13:R2$$$V2.0
SMILES: CC[C@H](C)[C@@H]1NC(=O)[C@@H]2CCCN2C(=O)[C@@H]2CCCN2C(=O)[C@H](CC(=O)O)NC(=O)[C@H](CO)NC(=O)[C@H](CCCCN)NC(=O)[C@H]([C@@H](C)O)NC(=O)[C@H](CCC(=O)O)NC(=O)[C@H](CCCNC(=N)N)NC(=O)[C@@H]2CCCN2C(=O)[C@H]2CCCN2C(=O)[C@H](Cc2ccccc2)NC(=O)[C@H](CCCNC(=N)N)NC1=O

% inhibition at 100 µM (Chymase, from human skin [11]): 0%
% inhibition at 100 µM [12]: 0%
B9: Example 123 (peptide)
peptide: XCTASIPPQCY
HELM: PEPTIDE1{[Nle].C.T.A.S.I.P.P.Q.C.Y.[dP].Q}$PEPTIDE1,PEPTIDE1,2:R3-10:R3|PEPTIDE1,PEPTIDE1,1:R1-13:R2$$$V2.0
SMILES: CCCC[C@@H]1NC(=O)[C@H](CCC(N)=O)NC(=O)[C@H]2CCCN2C(=O)[C@H](Cc2ccc(O)cc2)NC(=O)[C@@H]2CSSC[C@H](NC1=O)C(=O)N[C@@H]([C@@H](C)O)C(=O)N[C@@H](C)C(=O)N[C@@H](CO)C(=O)N[C@@H]([C@@H](C)CC)C(=O)N1CCC[C@H]1C(=O)N1CCC[C@H]1C(=O)N[C@@H](CCC(N)=O)C(=O)N2
notes: also called Ex. 123

The next lines start with the binder.

Binder: cyclo([Nle]CTASIPPQCY[dF]P) (disulfide 2-10) [Example 116]
% inhibition at 100 µM [1]: 0%

B4: Example 90 (peptide)
peptide: XCTASIPPQCF
HELM: PEPTIDE1{[Nle].C.T.A.S.I.P.P.Q.C.F.[dP].P}$PEPTIDE1,PEPTIDE1,2:R3-10:R3|PEPTIDE1,PEPTIDE1,1:R1-13:R2$$$V2.0
SMILES: CCCC[C@@H]1NC(=O)[C@@H]2CCCN2C(=O)[C@H]2CCCN2C(=O)[C@H](Cc2ccccc2)NC(=O)[C@@H]2CSSC[C@H](NC1=O)C(=O)N[C@@H]([C@@H](C)O)C(=O)N[C@@H](C)C(=O)N[C@@H](CO)C(=O)N[C@@H]([C@@H](C)CC)C(=O)N1CCC[C@H]1C(=O)N1CCC[C@H]1C(=O)N[C@@H](CCC(N)=O)C(=O)N2
notes: also called Ex. 90
% inhibition at 100 µM (Chymase, from human skin [11]): 0%
% inhibition at 100 µM [14]: 0%

B5: Example 131 (peptide)
peptide: XCTASIPPQCQ
HELM: PEPTIDE1{[Nle].C.T.A.S.I.P.P.Q.C.Q.[dP].P}$PEPTIDE1,PEPTIDE1,2:R3-10:R3|PEPTIDE1,PEPTIDE1,1:R1-13:R2$$$V2.0
SMILES: CCCC[C@@H]1NC(=O)[C@@H]2CCCN2C(=O)[C@H]2CCCN2C(=O)[C@H](CCC(N)=O)NC(=O)[C@@H]2CSSC[C@H](NC1=O)C(=O)N[C@@H]([C@@H](C)O)C(=O)N[C@@H](C)C(=O)N[C@@H](CO)C(=O)N[C@@H]([C@@H](C)CC)C(=O)N1CCC[C@H]1C(=O)N1CCC[C@H]1C(=O)N[C@@H](CCC(N)=O)C(=O)N2
% inhibition at 100 µM [1]: 0%

B6: Example 103 (peptide)
peptide: XCTASIPPQCY
HELM: PEPTIDE1{[O=C([C@H](CCc1ccccc1)N[*:1])[*:2]].C.T.A.S.I.P.P.Q.C.Y.[dP].P}$PEPTIDE1,PEPTIDE1,2:R3-10:R3|PEPTIDE1,PEPTIDE1,1:R1-13:R2$$$V2.0
SMILES: CC[C@H](C)[C@@H]1NC(=O)[C@H](CO)NC(=O)[C@H](C)NC(=O)[C@H]([C@@H](C)O)NC(=O)[C@@H]2CSSC[C@H](NC(=O)[C@H](CCC(N)=O)NC(=O)[C@@H]3CCCN3C(=O)[C@@H]3CCCN3C1=O)C(=O)N[C@@H](Cc1ccc(O)cc1)C(=O)N1CCC[C@@H]1C(=O)N1CCC[C@H]1C(=O)N[C@@H](CCc1ccccc1)C(=O)N2
% inhibition at 100 µM (Chymase, from human skin [11]): 0%
% inhibition at 100 µM [14]: 10.2%

Binder: cyclo([Nle]CTASIP[Pro(4NHCOPhe)]QCY[dP]P) (disulfide 2-10; reading uncertain, also called Ex. 88) [Example 88]
% inhibition at 100 µM (Chymase, from human skin [11]): 0%

B8: Example 121 (peptide)
peptide: XCTASIPPQCY
HELM: PEPTIDE1{[Nle].C.T.A.S.I.P.P.Q.C.Y.[dP].D}$PEPTIDE1,PEPTIDE1,2:R3-10:R3|PEPTIDE1,PEPTIDE1,1:R1-13:R2$$$V2.0
SMILES: CCCC[C@@H]1NC(=O)[C@H](CC(=O)O)NC(=O)[C@H]2CCCN2C(=O)[C@H](Cc2ccc(O)cc2)NC(=O)[C@@H]2CSSC[C@H](NC1=O)C(=O)N[C@@H]([C@@H](C)O)C(=O)N[C@@H](C)C(=O)N[C@@H](CO)C(=O)N[C@@H]([C@@H](C)CC)C(=O)N1CCC[C@H]1C(=O)N1CCC[C@H]1C(=O)N[C@@H](CCC(N)=O)C(=O)N2
% inhibition at 100 µM [1]: 12.8%
% inhibition at 100 µM [14]: 0%

Reference: patent publication US20140213531A1 (POLYPHOR, published 2014)
